Measurements published in patent publication US20240115742A1, “FLUORINATED FIBERS FOR MULTIMODAL 1H AND 19F MRI, ULTRASOUND, FLUORESCENCE DETECTION AND CONFORMATIONAL AND TEMPERATURE DETECTION BY 19F MRS” (New York University, priority 2022, published 2024).
Like-named read-outs stand apart in the source and are kept apart here. Square brackets hold non-standard residues; d marks the D form. Ends that are not written are not given here. LTF = trifluoroleucine

Assays:
[1] = previous studies, cited from earlier work
[2] = ATR-FTIR peak deconvolution of secondary structure; format: physicochemical
Description: Attenuated Total Reflectance-Fourier Transform Infrared Spectroscopy. Secondary structure of protein fiber variants was confirmed using attenuated total reflectance-Fourier transform infrared (ATR-FTIR) spectroscopy using the Nicolet 6700 Fourier Transform Infrared Spectrometer equipped with a diamond ATR accessory and a mercury cadmium telluride (MCT)-A detector. Spectra were collected for 5 μL of 500 μM protein from 4000-400 cm^−1 with 0.5 cm^−1 increments at room temperature (RT). For CCM bound protein, protein was bound at a final concentration of 500 μM and saturated with CCM as determined by fluorescent spectroscopic drug binding with a final 1% v/v DMSO. Sample spectra were normalized using buffer background and analyzed from 1700-1600 cm^−1 corresponding to the amide I region. Peaks were deconvoluted using Gaussian functions in PeakFit software until the goodness of fit reached r^2≥0.99. Peaks were associated with secondary structure were determined by methods known in the art.
(§1) Attenuated Total Reflectance-Fourier Transform Infrared Spectroscopy. Secondary structure of Q2 protein was confirmed using attenuated total reflectance-Fourier transform infrared (ATR-FTIR) spectroscopy using the Nicolet 6700 Fourier Transform Infrared Spectrometer equipped with a diamond ATR accessory and a mercury cadmium telluride (MCT)-A detector. Spectra were collected for 5 μL of 2 mM protein from 4000-400 cm^−1 with 0.5 cm^−1 increments. Sample spectra were normalized using buffer background and analyzed from 1700-1600 cm^−1 corresponding to the amide I region. Peaks were deconvoluted using Gaussian functions in PeakFit software until the goodness of fit reached r^2>0.99.
as §1, with “of Q2LTF and QLTF” for “of Q2”, “using a” for “using the”, “of 1” for “of 2”, “with 4.0” for “with 0.5”, “reached r^2≥0.99.” for “reached r^2>0.99.”
Attenuated Total Reflectance-Fourier Transform Infrared Spectroscopy. Secondary structure before (solution) and after gelation (gel) was also assessed by peak deconvolution of attenuated total reflectance-Fourier transform infrared (ATR-FTIR) spectra. ATR-FTIR measurements were performed using a Nicolet 6700 Fourier Transform Infrared Spectrometer equipped with a mercury cadmium telluride (MCT)-A detector. Spectra were collected for 5 μL samples of protein at 2 mM from 4000-400 cm^−1 with a 4.0 cm^−1 resolution, normalized, and buffer-subtracted prior to analysis from 1700-1600 cm^−1, corresponding to the amide I region. ATR-FTIR measurements were performed immediately after concentration to 2 mM for solution measurements and after. Peaks were deconvoluted using Gaussian functions in PeakFit software until the goodness of fit reached r^2≥0.99.

[3] = CD temperature scans (melting temperature); format: physicochemical
Description: Circular Dichroism Spectroscopy. Secondary structure was first assessed using the Jasco J-815 CD spectrometer with a PTC-423S single position Peltier temperature control system. Wavelength scans were performed from 190 to 250 nm using 15 μM samples at 1 nm step sizes at 25° C. Temperature scans were performed at α-helical minimum 222 nm from 20 to 85° C. The mean residue ellipticity (MRE) was calculated as described previously. MRE at 222 nm and 208 nm and their ratios were used to assess relative helicity.
Circular Dichroism Spectroscopy. The secondary structure of Q2LTF and QLTF was assessed using a Jasco J-815 circular dischroism (CD) spectrometer with a PTC-423S single position Peltier temperature control system. Wavelength scans were performed from 195 to 250 nm at 1 nm step sizes by diluting the protein into water (at approximately 10 μM) in order to minimize the effects of sodium chloride. […] The mean residue ellipticity (MRE) was calculated as described.

[4] = TEM of protein fibers; format: physicochemical; settings: fibers, 50 mM NaH2PO4 pH 4.0
Description: (§2) Transmission Electron Microscopy. Transmission electron microscopy (TEM) images were taken with a FEI Talos L120C transmission electron microscope. Protein fiber samples were diluted to 50 μM and 3 μL was spotted on Formvar/carbon-coated copper grids followed by 5 μL wash with water, and 3 μL staining with 1% v/v uranyl acetate solution each with incubation times of 1 min at RT. Fibrils were sized in ImageJ software (Version 1.52q).
as §2, with “Samples” for “Protein fiber samples”, “by a” for “by”, “min. Between steps, filter paper was used to wick the grids. Following imaging, fibrils” for “min at RT. Fibrils”

[5] = Confocal microscopy of CCM-bound fibers; format: physicochemical; settings: 50 μM protein saturated with CCM, pH 4.0
Description: Confocal Microscopy. Protein bound to CCM was studied by measuring 50 μM protein samples saturated with CCM as determined by fluorescent spectroscopic drug binding with a final 1% v/v DMSO (or 2×Kd). 10 μL of protein was added to a micro slide and a 22×22 mm #1 microscope cover glass. Slides were inverted and imaged using a Leica TCS SP8 X Laser Confocal Microscope using a dry 10× objective at RT. CCM was excited using a 460 nm line of the laser, and images were taken using a 470 to 550 nm detection window.
Confocal Microscopy. Q2LTF was diluted to 50 μM and saturated with 40 μM of curcumin (solubilized in DMSO) as determined by the binding affinity in drug-binding experiments. […] 5 μL of sample was deposited onto a microslide and covered with a 22×22 mm #1 microscope cover glass. Images were taken with a Leica TCS SP8 X laser confocal microscope using a dry 10× objective at RT. Samples were excited at 460 nm and images were taken with a 470-550 nm detection window.

Question: With “QLTF: Q with leucines replaced by trifluoroleucine, SEQ ID NO: 19 (MRGSHHHHHHGSIEGRVKEITF[LTF]KNTAPQM[LTF]RE[LTF]QETNAA[LTF]QDVRE[LTF][LTF]RQQSK[LTF]; ends and bridges not checked) [reference compound]” as the molecule, how does the melting temperature [1] read?
Answer: Its melting temperature is 52 °C.

Question: And the “aggregated strands” value ([2]; fluorinated constructs, Tris buffer)?
Answer: Its value is 17.4 % composition.

Question: With “C2: C variant with redistributed electrostatic patches, SEQ ID NO: 22 (MRGSHHHHHHGSIEGRMQLAKHMLKELQKTNALQSVRTLLQQQVEEITQLKETVENSDSS) [Protein C2]” as the molecule, how does the melting temperature ([3]; CCM-bound, pH 4.0) read?
Answer: Its melting temperature is 69.6±7.8 °C.

Question: What about the melting temperature ([3]; native, 50 mM NaH2PO4 pH 4.0) of the same molecule?
Answer: Its melting temperature is 49.4±1.1 °C.

Question: And the “average protein fiber diameter (TEM)” value [4]?
Answer: The value was 73±18 nm.

Question: And the aggregated strands ([2]; native)?
Answer: The aggregated strands was 5.3%.

Question: What about the “antiparallel β-sheet/aggregated strands” value ([2]; native) of the same molecule?
Answer: Its value is 15.0%.

Question: And the aggregated strands ([2]; w/CCM)?
Answer: The aggregated strands was 9.0%.

Question: What about the “antiparallel β-sheet/aggregated strands” value ([2]; w/CCM) of the same molecule?
Answer: The value was 4.8%.

Question: And the “fiber diameter after CCM binding (confocal)” value [5]?
Answer: Its value is 6.89±2.54 μm.

B1: C: cartilage oligomeric matrix protein coiled-coil with His tag, SEQ ID NO: 21 (protein)
chain: MRGSHHHHHHGSIEGRAPQMLRELQETNAALQDVRELLRQQVKEITFLKNTVMESDASGKL
modifications: His tag
Question: What does the source list for B1?
Answer: melting temperature ([1]; Na2HPO4 pH 8.0): 41-42 °C; melting temperature ([3]; CCM-bound, pH 4.0): 51.8±4.3 °C; melting temperature ([3]; native, 50 mM NaH2PO4 pH 4.0): 56.0±2.6 °C; average protein fiber diameter (TEM) [4]: 47±22 nm; aggregated strands ([2]; native): 10.0%; antiparallel β-sheet/aggregated strands ([2]; native): 11.5%; aggregated strands ([2]; w/CCM): 20.8%; antiparallel β-sheet/aggregated strands ([2]; w/CCM): 0.0%; fiber diameter after CCM binding (confocal) [5]: 4.91±1.49 μm
